From US20120277180A1, “Cofactors and Methods for Use for Individuals” (VITAPATH GENETICS, INC, priority 2009, published 2012)

What was measured:
human MTHFR [1] = molecular target: T1, human MTHFR (Homo sapiens, UniProt P42898, A222V); test: Cell-free MTHFR enzyme activity assay in crude yeast extract; format: biochemical; design: expressed in transfected cells; details: cells grown at 50 ug/ml folinic acid
human MTHFR [2] = molecular target: T1, human MTHFR; test: In vivo yeast complementation growth assay: MTHFR alleles in fol3 met13 haploid yeast, growth without methionine with titrated folinic acid; format: cell-based; design: expressed in transfected cells; host or cells: Saccharomyces cerevisiae fol3Δ::KanMX met13Δ::KanMX (S288c background), GAL1 promoter; details: 50 p g/ml folate supplementation

A222V: common functionally impaired human MTHFR variant, catalytic domain substitution A222V
Drop in enzyme activity in cell-free assays (human MTHFR [1]): 50% | Reduction in growth rate (human MTHFR [2]): 50%
